In the supplement of paper PMC9732359:
± gives the uncertainty stated by the source.

Assay: protein stability index of a GFP-peptide fusion (yeast GPS) (PSI 1-4); higher = more stable; sorted into four equal gates, so the index is relative within each strain
Outline: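 The protein stability index of a peptide was calculated by multiplying its read frequency in each gate by that gate's number and adding the products. The peptides were tiled 17-residue stretches of yeast proteins, fused downstream of GFP on a Cherry-expressing plasmid and carried in yeast as a pooled library. Mid-log cultures in leucine-free medium were sorted into four equal gates by GFP/Cherry ratio, and each gate's plasmids were PCR-amplified and Illumina-sequenced.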

| Sequence | protein stability index (doa10∆) | protein stability index (pdr5∆) | protein stability index (san1∆) | protein stability index (ubr1∆) |
| --- | --- | --- | --- | --- |
| SGEDTNVGLPILKSLKN [YOR098C/NUP1] | 2.95 ± 0.1 | 3.16 ± 0.13 | 2.85 ± 0.069 | 3.28 ± 0.12 |
| ISLYFNDILDELLCGMA [ECM29] | 1.64 ± 0.1 | 1.81 ± 0.069 | 2.04 ± 0.18 | 1.48 ± 0.06 |
| VQLRYGDYDSHDISRYV [PRP8] | 2.41 ± 0.062 | 2.46 ± 0.064 | 2.69 ± 0.075 | 2.09 ± 0.044 |
| NAGTDIVMEDHGVLQGT [MED1] | 3.11 ± 0.072 | 3.06 ± 0.1 | 3.08 ± 0.085 | 3 ± 0.067 |
| SQVVWIRRLRVLRRLLA [RPL19A] | 1.22 ± 0.054 | 1.46 ± 0.049 | 1.44 ± 0.12 | 1.29 ± 0.053 |
| ISNLTQEQVQDYVNKTN [FAS1] | 2.34 ± 0.047 | 2.81 ± 0.043 | 2.82 ± 0.057 | 2.27 ± 0.033 |
| NVTSSGDHNKLRSTIAN [YML103C/NUP188] | 2.43 ± 0.051 | 2.48 ± 0.062 | 2.35 ± 0.071 | 2.02 ± 0.033 |
| SRFTNVSVIAPESQGQH [YMR153W/NUP53] | 3 ± 0.09 | 3.39 ± 0.087 | 2.6 ± 0.12 | 3.19 ± 0.048 |
| FKSPIDNSESHPFIPLL [RRP6] | 1.95 ± 0.07 | 2.23 ± 0.053 | 2.03 ± 0.075 | 1.82 ± 0.052 |
| LALTTLSEPLIKIGIRV [YCG1] | 1.81 ± 0.061 | 2.06 ± 0.047 | 1.74 ± 0.065 | 2.01 ± 0.057 |
| KKRKIHNGREGSIEEPE [MCD1] | 3.26 ± 0.066 | 3.24 ± 0.06 | 3.17 ± 0.051 | 3.27 ± 0.042 |
| WLKEYEDETLRRIKEAE [YIL149C/MLP2] | 2.83 ± 0.11 | 3.19 ± 0.12 | 3.17 ± 0.069 | 3.44 ± 0.11 |
| GINSKSGKPFIAGFDLI [PUP3] | 3.11 ± 0.089 | 3.29 ± 0.094 | 3.3 ± 0.13 | 3.06 ± 0.081 |
| NKSTSSEAEYSKDIETL [YIL149C/MLP2] | 3.19 ± 0.089 | 2.97 ± 0.099 | 3.21 ± 0.062 | 3.26 ± 0.072 |
| MDETQTRAKIGGLNDPR [RPO21] | 2.8 ± 0.1 | 2.24 ± 0.11 | 2.3 ± 0.1 | 1.85 ± 0.22 |
| EKAKSAGTQSSKFSKQQ [RPL24A] | 3.15 ± 0.064 | 3.23 ± 0.076 | 3.32 ± 0.047 | 3.12 ± 0.067 |
| AITNTGPREDTTRVGGG [RPS5] | 3.04 ± 0.074 | 3.05 ± 0.073 | 2.9 ± 0.07 | 3.18 ± 0.054 |
| SVRKFLEIALFKYRKAR [RPO31] | 2.31 ± 0.12 | 1.18 ± 0.097 | 1.36 ± 0.17 | 1.32 ± 0.15 |
| FCPGEIVGKSNVLVTMP [YMR129W/POM152] | 2.69 ± 0.12 | 2.3 ± 0.1 | 1.82 ± 0.27 | 2.51 ± 0.085 |
| TTFEYIIKERALLSKVK [SNF2] | 1.58 ± 0.046 | 1.67 ± 0.048 | 1.41 ± 0.071 | 1.37 ± 0.036 |
| KLLIQIDELSNGQRSNS [SMC1] | 2.42 ± 0.16 | 2.59 ± 0.11 | 3.14 ± 0.1 | 3.11 ± 0.16 |
| APTGSGKTNIALLTVLK [BRR2] | 2.88 ± 0.067 | 3.07 ± 0.073 | 3.35 ± 0.052 | 2.88 ± 0.049 |

| Sequence | protein stability index (doa10∆) | protein stability index (pdr5∆) | protein stability index (san1∆) | protein stability index (ubr1∆) |
| --- | --- | --- | --- | --- |
| DYLFHLLISLNILFSLW [YLR018C/POM34] | 1.61 ± 0.041 | 1.34 ± 0.036 | 1.17 ± 0.072 | 1.21 ± 0.03 |
| KSKEDMKQLKFFKPLDY [SNU114] | 3.32 ± 0.14 | 3.08 ± 0.098 | 3.05 ± 0.16 | 3.29 ± 0.087 |
| QEASKQYTKDEQFYTKD [RPN2] | 3.41 ± 0.085 | 3.3 ± 0.086 | 3.19 ± 0.083 | 3.25 ± 0.056 |
| LSISVAAEPMDSKMIQD [SNU114] | 2.73 ± 0.061 | 3.03 ± 0.081 | 2.84 ± 0.077 | 3.18 ± 0.11 |
| AIRKNGQIDFWYQFSNS [SIN4] | 2.09 ± 0.087 | 2.08 ± 0.08 | 1.77 ± 0.082 | 2.52 ± 0.056 |
| RNEVLESMDFLVLADAF [YCS4] | 2.04 ± 0.048 | 2.31 ± 0.086 | 2.43 ± 0.092 | 2.72 ± 0.048 |
| KIQFHIHFADVAHITTK [RGR1] | 2.88 ± 0.092 | 2.95 ± 0.087 | 2.83 ± 0.07 | 2.83 ± 0.058 |
| YRNNEPAGFTHKLSNWL [YDL088C/ASM4] | 2.49 ± 0.072 | 3.04 ± 0.058 | 2.7 ± 0.06 | 2.82 ± 0.039 |
| DTTVPKRLGPKRANNIR [RPS6A] | 3.46 ± 0.11 | 3.68 ± 0.11 | 3.19 ± 0.051 | 3.37 ± 0.063 |
| LNISGEFFRNKLKYHDF [RPL16A] | 1.32 ± 0.13 |  |  | 1.12 ± 0.1 |
| FEIIFPPTDTNVEESVS [POP5] | 2.91 ± 0.091 | 2.68 ± 0.085 | 2.47 ± 0.071 | 3.09 ± 0.12 |
| MLMPKQERNKIHQYLFQ [RPS10B] | 2.76 ± 0.29 | 2.88 ± 0.17 | 2.89 ± 0.14 | 2.78 ± 0.1 |
| EEPIKKLCYVLGVEDIT [RET1] |  |  | 3.08 ± 0.15 |  |
| EERFSELFKGYLADDID [RPL5] | 3.05 ± 0.29 | 3.27 ± 0.24 | 3.3 ± 0.17 | 3.01 ± 0.28 |
| HQNVIIGSNGSGKSNFF [SMC3] | 3.07 ± 0.086 | 2.7 ± 0.091 | 2.84 ± 0.069 | 2.85 ± 0.057 |
| PAGFTHKLSNWLFGWND [YDL088C/ASM4] | 2.86 ± 0.073 | 3.07 ± 0.067 | 3.33 ± 0.053 | 2.96 ± 0.043 |
| VISMFVLPIFTTVFFSR [YML031W/NDC1] | 1.38 ± 0.046 | 1.16 ± 0.065 | 1.17 ± 0.11 | 1.16 ± 0.057 |
| KQLVEKAELRLAIADSP [ECM29] |  | 3.38 ± 0.29 |  | 3.29 ± 0.16 |
| TAVNGIDTDLFGAPNNP [YGL172W/NUP49] | 3.1 ± 0.083 | 3.23 ± 0.08 | 3.25 ± 0.058 | 3.19 ± 0.053 |
| LPKLKATGHRVLIFFQM [SNF2] | 1.69 ± 0.13 | 1.52 ± 0.083 | 2.09 ± 0.12 | 2.09 ± 0.14 |
| KRSDLTGANSIYSVEKK [UBP6] | 3.09 ± 0.12 | 2.8 ± 0.15 | 2.57 ± 0.15 | 3.16 ± 0.056 |
